# Experimental data: patent US20250270300A1 (UNIVERSITY COURT OF THE UNIVERSITY OF ABERDEEN, published 2025)
# Numbering of substitutions follows the chain as printed.
# T1: Recombinant Hyr1 N-terminus fragment (Candida albicans, UniProt Q5AL03 63-350)
# T1 construct: the last 288 residues are Hyr1 63-350; Expressed in HEK293F cells, 32 kDa; also called recombinant N-terminus of the Hyr1 protein; purified Hyr1 protein
# T1 sequence: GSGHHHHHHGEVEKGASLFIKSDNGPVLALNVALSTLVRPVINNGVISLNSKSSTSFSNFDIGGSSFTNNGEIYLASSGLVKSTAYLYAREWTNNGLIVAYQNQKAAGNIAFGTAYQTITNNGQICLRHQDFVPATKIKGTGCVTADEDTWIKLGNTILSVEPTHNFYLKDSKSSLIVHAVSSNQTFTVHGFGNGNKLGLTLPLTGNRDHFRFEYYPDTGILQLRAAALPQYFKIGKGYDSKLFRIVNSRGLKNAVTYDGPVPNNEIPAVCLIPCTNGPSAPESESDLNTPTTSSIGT
# B1: AB120 (antibody, human IgG1, V domains shown)
# VH: EVQLVQSGGGLVQPGGSLGLSCAASGFIFTSYAMTWVRQAPGKGLEWVSVITGNVGTSYYADSVKGRFTISRDNSKKTVSLQMNSLRAEDTAIYYCVKTRYDFSSGYYFDDWGQGTLVSVSS
# VL: DIVMTQSPSSVSASVGDKVTITCRASQGISRWLAWYQQKPGEAPELLIYAASSLQSGVPSRFSGSGSGTDFTLTISSLQPEDFATYYCQQANSFPITFGQGTRLQIK
# notes: Tested as purified recombinant whole human IgG1 (Expi293F); also called 06-AB-120; anti-Hyr1 mAb
# B2: AB121 (antibody, human IgG1, V domains shown)
# VH: EVQLVESGGTLVQPGGSLRLSCAASGFTFSDYWMNWVRQAPGKGLEWVANIKQDGSEKYYVDSLRGRVTISRDNAQNSVFLQMHSLSVEDTAVYYCARDGYTFGPATTELDHWGRGTLVSVSS
# VL: QLVLTQPPSVSVSPGQTASITCSGDELRNKYTSWYQQKSGQSPVLVIYQDNNRPSGIPERFSGSQSGDTATLTISGTQAVDEADYYCQAWVSQTLVFGGGTKLTVL
# notes: Tested as purified recombinant whole human IgG1 (Expi293F); also called 06-AB-121; anti-Hyr1 mAb
# B3: AB122 (antibody, human IgG1, V domains shown)
# VH: EVQLVQSGGGLAQPGRSLRLSCAASGFGFDDFAMHWVRQPPGKGLEWVSGLTWNGGSIDYAGSVRGRFTISRDNAKNSLFLQMNSLRAEDTALYYCAKGLSGGTMAPFDIWGQGTMVSVSS
# VL: QAGLTQPPSVSVAPGQTATIPCGGNNIGSKHVHWYQQKPGQAPVAVVYDDSDRPSGVPERFSGSNSGNTATLTISSVEAGDEADYYCQVWDRSSDHFWLFGGGTRLTVL
# notes: Tested as purified recombinant whole human IgG1 (Expi293F); also called 06-AB-122; anti-Hyr1 mAb
# B4: AB126 (antibody, human IgG1, V domains shown)
# VH: EVQLVESGGGLAQPGGSLRLSCEASGFHLAGNAMAWVRQAPGKGLEWVAAIGGSDDRTDYADSVKGRFTISRDKSKNTLSLQMNSLRVEDTAVYYCAKDIWRWAFDYWGQGTLVSVSS
# VL: DIVMTQSPATLSLSPGERATLSCWASQYINTYVNWYQHKPGQAPRLLIYDASKRATGIPARFSGSGSGTDFTLTISSLEPEDFAVYYCQQGSNWPLTFGQGTRLEIK
# notes: Tested as purified recombinant whole human IgG1 (Expi293F); also called 06-AB-126; anti-whole cell mAb
# B5: AB119 (antibody, human IgG1, V domains shown)
# VH: QVTLKESGGGLVQPGGSLRLSCVASGFTFRTYWMHWVRQDPGKGLVWVSRLDEVGRLTSYADSVNGRFTISRDNAKNILYLQMNSLRAEDTGVYYCARDLSGSADYWGQGTLVTVSS
# VL: DVVLTQSPLFLPVTPGEPASISCRSSQSLLHSRGHTSLHWYLQKPGQSPHLLIYSVFNRASGVPDRFSGSGSGTDFTLKISRVEAEDVGVYYCMQALEPPYTFGQGTKLEIK
# notes: Tested as purified recombinant whole human IgG1 (Expi293F); also called 06-AB-119; anti-whole cell mAb
# B6: AB123 (antibody, human IgG1, V domains shown)
# VH: EVQLLESGGGVVQPGRSLRLSCAASGFTFSNYGMHWVRQAPGKGLEWVAVVWFDGSYKYYTDSVKGRFTISRDNSKSTLYLQMNSLRAEDTAVYYCVSPIMTSAFDIWGPGTMVSVSS
# VL: QLVLTQPPSASGSPGQSVTISCTGTSSDVGGSNFVSWYQHHPGKAPKLMIYEVSQRPSGVPDRFSGSKSGNTASLTVSGLQADDEADYYCSSYAGSVVLFGGGTKLTVL
# notes: Tested as purified recombinant whole human IgG1 (Expi293F); also called 06-AB-123; anti-Hyr1 mAb
# B7: AB124 (antibody, human IgG1, V domains shown)
# VH: B6 VH with L5V, F53L, D62G, V93A, S115T
# VL: B6 VL
# notes: Tested as purified recombinant whole human IgG1 (Expi293F); also called 06-AB-124; anti-Hyr1 mAb
# B8: AB127 (antibody, human IgG1, V domains shown)
# VH: EVQLVESGGGLVNPGGSLRLSCAASGFTFSNYAMNWVRQAPGKGLEWVSSISRSGDYIYYADSLKGRSTISRDNAKNSLFLQMNSLRAEDSAVYYCARDWGRLGYCSSNNCPDAFDVWGQGTRVSVSS
# VL: EIVMTQSPSFVSASVGDRVTITCRASQDISNWLVWYQQKPGKAPKLLIYASSNLQSGVPSRFSGSGSGTDFALTIISLQPEDFATYYCQQENSFPYTFGQGTKLEIK
# notes: Tested as purified recombinant whole human IgG1 (Expi293F); also called 06-AB-127; anti-whole cell mAb
# B9: AB134 (antibody, human IgG1, V domains shown)
# VH: QLQLQESGGGLVQPGGSLRLSCVVSGFTFSSHAMSWVRQAPGKGLEWVSSISISGGDTFYADSVRGRFTIFRDNSKNTVYLQMNSLRAEDTAVYYCATETSPNDYWGQGTLVSVSS
# VL: SYELTQPSSLTVSPGGTVTLTCGLSSGAVTSGHYPYWFQQKPGQAPKTLIFDTSRKHSWTPARFSGSLLGGKAALTLSGAQPEDDADYYCLLACNGACVFGGGTKLTVL
# notes: Tested as purified recombinant whole human IgG1 (Expi293F); also called 06-AB-134; anti-whole cell mAb
# B10: AB135 (antibody, human IgG1, V domains shown)
# VH: B9 VH with Q1E, L2V, Q5V, S7T, S113T
# VL: B9 VL
# notes: Tested as purified recombinant whole human IgG1 (Expi293F); also called 06-AB-135; anti-whole cell mAb
# B11: AB131 (antibody, human IgG1, V domains shown)
# VH: QVQLVQSGGGVVQPGGSLRLSCAASPFTFKTSILHWVRQAPGKGLEWVSAMSYDGFSKYYADSVKGRLTISRDSSTNTLYLEMNSLRFEDTALYFCAREAYTSGRAGCFNPWGQGVLVSVSS
# VL: DIVMTQTPSTQSASVGDRVTITCRASQSISIWLAWYQQKPGKAPKLLIHDASTLESGVPSRFSGSGSGTEFTLTISSLQPDDSATYYCQRYNDYPPTFGPGTKVEIK
# notes: Tested as purified recombinant whole human IgG1 (Expi293F); also called 06-AB-131; anti-whole cell mAb
# B12: AB132 (antibody, human IgG1, V domains shown)
# VH: QVLKESGGGVVQPGGSLRLSCAASPFTFETSILHWVRQAPGKGLEWVSAMSYDGFSKYYADSVKGRLTISRDSSTNTLYLEMNSLRFEDTALYFCAREAYTSGRAGCFDPWGQGVLVSVSS
# VL: B11 VL with D1E, T7S
# notes: Tested as purified recombinant whole human IgG1 (Expi293F); also called 06-AB-132; anti-whole cell mAb
# B13: AB129 (antibody, human IgG1, V domains shown)
# VH: QVQLVESGGGLVQPGGSLRLSCSASQFILSNYWVHWVRQVPGEGLVWVSRINEDGSVTSYADSVKGRFTISRDNAKNTLYLQMNSLRVDDTAVYYCVRDLCGERDDWGQGTLVTVSS
# VL: VIWMTQSPLSLPVTPGEAASISCRSSQSLLHRNGRTFFAWYLQKPGQSPQILIYLGSNRAFGVPDRFSGSGSGTDFTLKISRVEAEDVGIYYCMQGLQTPYTFGQGTKLEIK
# notes: Tested as purified recombinant whole human IgG1 (Expi293F); also called 06-AB-129; anti-whole cell mAb
# B14: AB130 (antibody, human IgG1, V domains shown)
# VH: B13 VH with V2L, V5Q, G102W, T114S
# VL: B13 VL
# notes: Tested as purified recombinant whole human IgG1 (Expi293F); also called 06-AB-130; anti-whole cell mAb
# B15: AB118 (antibody, human IgG1, V domains shown)
# VH: B13 VH with Q1E, T114S
# VL: B13 VL with V1D, W3V, R35K, F61S
# notes: Tested as purified recombinant whole human IgG1 (Expi293F); also called 06-AB-118; anti-whole cell mAb
# B16: AB133 (antibody, human IgG1, V domains shown)
# VH: EVQLVESGGGLVQPGGSLRVSCAASGFTLNTYWMHWVRQAPGKGLVWVSRINEDGTTISYADSVRGRFTISRDNAENTLYLQMHSLRAEDTGVYYCARDFTGPFDSWGQGTLVSVSS
# VL: QSVLTQPPSVSGTPGQRVTISCSGSNSNAGRDYVSWYQQVPGTAPKLLIYKNNQRPSGVPDRFSGSKSGTSASLAISGLRSEDDGDYYCIVWDGSLSGYVFGTGTKVTVL
# notes: Tested as purified recombinant whole human IgG1 (Expi293F); also called 06-AB-133; anti-whole cell mAb
# B17: AB140 (antibody, human IgG1, V domains shown)
# VH: B16 VH
# VL: B16 VL with S2L, A29V
# notes: Tested as purified recombinant whole human IgG1 (Expi293F); also called 06-AB-140; anti-whole cell mAb
# B18: AB139 (antibody, human IgG1, V domains shown)
# VH: B16 VH
# VL: B16 VL with A29V, Q54R
# notes: Tested as purified recombinant whole human IgG1 (Expi293F); also called 06-AB-139; anti-whole cell mAb
# Target: T2, human serum albumin (human, UniProt P02768 25-609)
# T2 construct: also called HSA
# T2 sequence (P02768 25-609 limits assumed): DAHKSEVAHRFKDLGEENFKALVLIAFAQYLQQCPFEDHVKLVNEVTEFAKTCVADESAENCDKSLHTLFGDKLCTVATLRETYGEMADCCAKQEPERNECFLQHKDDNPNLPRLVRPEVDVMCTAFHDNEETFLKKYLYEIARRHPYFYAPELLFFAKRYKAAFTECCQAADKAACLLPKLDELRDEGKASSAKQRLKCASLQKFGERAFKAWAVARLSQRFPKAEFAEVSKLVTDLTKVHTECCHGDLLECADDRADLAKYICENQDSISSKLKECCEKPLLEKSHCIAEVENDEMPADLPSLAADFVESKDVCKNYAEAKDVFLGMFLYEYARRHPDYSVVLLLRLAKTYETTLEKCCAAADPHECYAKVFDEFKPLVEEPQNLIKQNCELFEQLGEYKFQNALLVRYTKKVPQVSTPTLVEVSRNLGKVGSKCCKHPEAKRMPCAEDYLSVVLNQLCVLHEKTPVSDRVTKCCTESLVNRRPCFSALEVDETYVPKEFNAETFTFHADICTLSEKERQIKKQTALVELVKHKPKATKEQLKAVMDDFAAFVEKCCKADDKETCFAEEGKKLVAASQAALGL
# Experiment: ELISA
row,Binder,binding result
1,B1,no binding
2,B2,no binding
3,B3,no binding
4,B4,no binding
5,B5,no binding
6,B6,no binding
7,B7,no binding
8,B8,no binding
9,B9,no binding
10,B10,no binding
11,B11,no binding
12,B12,no binding
13,B13,no binding
14,B14,no binding
15,B15,no binding
16,B16,no binding
17,B17,no binding
18,B18,no binding

# Target: T1, Recombinant Hyr1 N-terminus fragment
# Experiment: ELISA, plate coated with recombinant Hyr1 N-terminus, titrated mAb
row,Binder,EC50
1,B1,0.104 µg/mL
2,B2,0.0765 µg/mL
3,B3,0.0496 µg/mL
4,B6,0.0533 µg/mL
5,B7,1.05 µg/mL
